Patent US11925667B2, “Engineered therapeutic probiotic system and method” (priority 2018, dated 2024)

B1: Armoracia rusticana myrosinase I1, SEQ ID NO: 6 (Armoracia rusticana) (protein)
chain: QNVCNPACKAKEPFNCDNTLTFNQTGFPKNFTFGAATSAYQIEGAAHRALNGWDYFTHRYPEKVPDRSSGDLACDSYDLYKDDVKLLKRMNVQAYRLSIAWSRVLPKGRLIGGVDENGITYYNNLINELKANGIEPYVTIFHWDVPQTLEDEYGGFLSPRIVEDFTNFAELLFQRFGDRVKFWITLNQPYSLATKGYGDGSYPPGRCTDCEFGGDSGTEPYIVAHHQLLAHAETVSLYRKRYQKFQGGKIGTTLIGRWFQPLNQTSNLDKAAAKRAFDFFVGWFLDPLVYGEYPKIMKEMVGDRMPKFTPQESDLVKGSLDFLGLNYYVTQYATDAPPSIPTQPSAITDPRVTLGYYRNGIPIGVQAASFVYYPTGFRQILNHIKDNYKNPLTYITENGVADFGNLTLANALADIGRIQNHCSHLSCLKCAIADGCNVGGYFAWSFMDNYEFGNGYTLRFGMNWVNFTNPADRKQKDSGKWFSKFLAK
notes: elsewhere used as YebF-I1 fusion
B2: Brevicoryne brassicae myrosinase BMY1 (Brevicoryne brassicae) (protein)
chain: MDYKFPKDFMFGTSTASYQIEGGWNEDGKGENIWDRLVHTSPEVIKDGTNGDIACDSYHKYKEDVAIIKDLNLKFYRFSISWARIAPSGVMNSLEPKGIAYYNNLINELIKNDIIPLVTMYHWDLPQYLQDLGGWVNPIMSDYFKEYARVLFTYFGDRVKWWITFNEPIAVCKGYSIKAYAPNLNLKTTGHYLAGHTQLIAHGKAYRLYEEMFKPTQNGKISISISGVFFMPKNAESDDDIETAERANQFERGWFGHPVYKGDYPPIMKKWVDQKSKEEGLPWSKLPKFTKDEIKLLKGTADFYALNHYSSRLVTFGSDPNPNFNPDASYVTSVDEAWLKPNETPYIIPVPEGLRKLLIWLKNEYGNPQLLITENGYGDDGQLDDFEKISYLKNYLNATLQAMYEDKCNVIGYTVWSLLDNFEWFYGYSIHFGLVKIDFNDPQRTRTKRESYTYFKNVVSTGKP

Key:
[1] = substrate: C=CC/C(=N/OS(=O)(=O)O)S[C@@H]1O[C@H](CO)[C@@H](O)[C@H](O)[C@H]1O; assay: Myrosinase activity assay (glucose release from sinigrin hydrolysis), I1; assay type: biochemical, Armoracia rusticana
Text: In a preferred embodiment, the myrosinases derived from Armoracia rusticana (I1) and Brassica oleacea (A6) have a better stability and catalytic efficiency in various temperatures and pH values when compared with those derived from BMY1 and TGG1 (Table 1). In a preferred illustrative embodiment I1 myrosinase is selected owing to its Km value and improved kcat at the colorectal ambient temperature and pH (FIG. 2c, 2d and Table 1). By comparing the modeled-I1 myrosinase protein structure against that of the BMY1 myrosinase, the critical side chain residues involved in glucose-ring recognition and the glutamic acid that served as a nucleophile during catalysis are conserved. According to the claimed invention the improved catalytic efficiency of the I1 myrosinase is correlated to its pI value (pI=7.90) and the overall positively charged surface (FIG. 8) that contributes to better structural stability.
(§1) Gene cloning, protein expression and purification. Myrosinase genes are optimized for E. coli expression and cloned into the pET28b expression vector. The plasmids are transformed into E. coli BL21 (DE3) cultured in lysogeny broth (LB) (BD, Le Pont de Claix, France) at 37° C., 225 rpm to OD600 0.6 followed by 0.5 mM isopropyl β-D-1-thiogalactopyranoside (IPTG) induction at 16° C., 180 rpm for 16 hours. Cells are harvested, resuspended in lysis buffer (50 mM Tris-Cl, 300 mM NaCl, 10% glycerol, 1 mM dithiothreitol [DTT], pH 8.0) and lysed using Emulsiflex C-3 (Avestin). Expressed myrosinases are purified by IMAC Ni-NTA purification followed by Hi-Load Superdex 200 size exclusion column chromatography (GE, Uppsala, Sweden). The purified protein is concentrated and stored at −80° C. Pilot scale protein purification and enzymatic assay is conducted.
(§2) Myrosinase screening assay. The enzymatic reaction is measured for the release of glucose resulting from sinigrin hydrolysis. The reaction is conducted in sodium phosphate-buffered solution supplied in the Amplex® Red Glucose/Glucose Oxidase Assay Kit (Thermo Fisher Scientific, Geel, Belgium). The reaction buffer is prepared at different pH values (6.0, 6.5, 7.4 and 8.0) and at different reaction temperatures (34° C., 37° C., and 40° C.). The reaction is prepared using 0.1 μM purified myrosinase added to 1× Amplex® Red Glucose Assay reaction mixture and was kick-started with the corresponding concentration of sinigrin. The reaction can be measured at 560 nm absorbance and fluorescence (λex=540 nm, λem=590 nm) using a Synergy H1 Multi-Mode microtiter plate reader (BioTek®, Winooski, USA). The reaction initial velocity (VO) is determined and fitted into a Michaelis-Menten curve. Vmax and KM are determined by fitting into the Michaelis-Menten equation (Eq. 1) using GraphPad Prism Software. ^v=Vmax*[Sinigrin]/(KM+[Sinigrin]) (Eq.1)
(§3) Table S1|Myrosinase activity assay screening under various pH and temperature conditions (n=3 independent experiments, each measurement performed in triplicates; mean[…].).

[2] = substrate: C=CC/C(=N/OS(=O)(=O)O)S[C@@H]1O[C@H](CO)[C@@H](O)[C@H](O)[C@H]1O; assay: Myrosinase activity assay (glucose release from sinigrin hydrolysis), BMY1; assay type: biochemical, Brevicoryne brassicae
Protocol: Screening for improved β-thioglucosidase. The activity and stability of myrosinase, a β-thioglucosidase that hydrolyzes glucosinolate to sulforaphane, varies at differing pH and temperature; in a preferred embodiment the selected enzyme needs to function under physiological colorectal conditions. The healthy colon pH averages 6.6, while it is 7.0 and 6.7 in patients with adenoma and carcinoma, respectively. In addition, the temperature of the human intestinal tract ranges from 36° C. to 40° C. depending on the individual's metabolic state. In the illustrative example five plant-derived myrosinase orthologues with minimal glycosylation sites and the absence of the co-factor-binding sites using the BLAST search and the Enzyme Function Initiative-Enzyme Similarity Tool (EFI-EST), are compared to the well-characterized myrosinases from Brevicoryne brassicae (BMY1) and Arabidopsis thaliana (TGG1) (FIG. 2a and FIG. 7).
as §1, §2, §3

[3] = other: pH 6.0, 37° C., pH 6.0, 37.0 °C
[4] = other: pH 6.5, 37° C., pH 6.5, 37.0 °C
[5] = other: pH 7.4, 34° C., pH 7.4, 34.0 °C
[6] = other: pH 7.4, 37° C., pH 7.4, 37.0 °C
[7] = other: pH 7.4, 40° C., pH 7.4, 40.0 °C
[8] = other: pH 8.0, 37° C., pH 8.0, 37.0 °C

| Protein | Km [1, 3] [µM] | Km [1, 4] [µM] | Km [1, 5] [µM] | Km [1, 6] [µM] | Km [1, 7] [µM] | Km [1, 8] [µM] | Km [2, 3] [µM] | Km [2, 4] [µM] | Km [2, 5] [µM] | Km [2, 6] [µM] | Km [2, 7] [µM] | Km [2, 8] [µM] |
| --- | --- | --- | --- | --- | --- | --- | --- | --- | --- | --- | --- | --- |
| B1 | 192 ± 40 | 183 ± 19 | 49 ± 4 | 87 ± 7 | 87 ± 9 | 192 ± 17 | – | – | – | – | – | – |
| B2 | – | – | – | – | – | – | 153 ± 17 | 399 ± 86 | 76 ± 6 | 67 ± 1 | 342 ± 67 | 217 ± 87 |
